Biological target: Myc-tagged full length FTO (UniProt Q9C0B1 1-505)
Test: cell-based or functional assay

Myc-tagged full length FTO, sequence (Q9C0B1 whole entry): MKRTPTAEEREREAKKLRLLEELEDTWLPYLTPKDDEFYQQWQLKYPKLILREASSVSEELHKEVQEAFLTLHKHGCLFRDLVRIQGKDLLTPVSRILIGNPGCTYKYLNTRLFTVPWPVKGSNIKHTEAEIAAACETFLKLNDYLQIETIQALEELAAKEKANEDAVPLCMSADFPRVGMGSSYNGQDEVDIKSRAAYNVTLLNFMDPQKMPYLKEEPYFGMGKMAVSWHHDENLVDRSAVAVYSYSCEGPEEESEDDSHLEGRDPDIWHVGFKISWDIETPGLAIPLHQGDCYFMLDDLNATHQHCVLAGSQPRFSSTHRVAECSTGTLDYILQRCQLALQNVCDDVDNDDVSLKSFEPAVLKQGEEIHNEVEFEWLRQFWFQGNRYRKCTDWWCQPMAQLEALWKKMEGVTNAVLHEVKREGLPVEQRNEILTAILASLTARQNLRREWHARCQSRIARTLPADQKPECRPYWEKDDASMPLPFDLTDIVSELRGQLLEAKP

B1: Thyroid receptor interacting protein 4 (TRIP4), in HEK293 cell extract (natural protein, human (endogenous in HEK293), UniProt Q15650 1-581, looked up)
chain: MAVAGAVSGEPLVHWCTQQLRKTFGLDVSEEIIQYVLSIESAEEIREYVTDLLQGNEGKKGQFIEELITKWQKNDQELISDPLQQCFKKDEILDGQKSGDHLKRGRKKGRNRQEVPAFTEPDTTAEVKTPFDLAKAQENSNSVKKKTKFVNLYTREGQDRLAVLLPGRHPCDCLGQKHKLINNCLICGRIVCEQEGSGPCLFCGTLVCTHEEQDILQRDSNKSQKLLKKLMSGVENSGKVDISTKDLLPHQELRIKSGLEKAIKHKDKLLEFDRTSIRRTQVIDDESDYFASDSNQWLSKLERETLQKREEELRELRHASRLSKKVTIDFAGRKILEEENSLAEYHSRLDETIQAIANGTLNQPLTKLDRSSEEPLGVLVNPNMYQSPPQWVDHTGAASQKKAFRSSGFGLEFNSFQHQLRIQDQEFQEGFDGGWCLSVHQPWASLLVRGIKRVEGRSWYTPHRGRLWIAATAKKPSPQEVSELQATYRLLRGKDVEFPNDYPSGCLLGCVDLIDCLSQKQFKEQFPDISQESDSPFVFICKNPQEMVVKFPIKGNPKIWKLDSKIHQGAKKGLMKQNKAV
NFκB-responsive firefly luciferase reporter (normalised to renilla) in Fto null MEFs co-transfected with a TRIP4 expression construct and Myc-tagged full length FTO: ≤ 5 fold

Source: paper PMC4354923, “FTO is necessary for the induction of leptin resistance by high-fat feeding” (Molecular Metabolism, 2015)
